This data set has as its target Oct4 C48S (purified) (Mus musculus, UniProt P20263 1-352, C178S). As to the kind of experiment: EMSA. For orientation: Mobility shift assays separate free from complexed probe on a gel.

Sequence of Oct4 C48S (purified) (P20263 whole entry C178S): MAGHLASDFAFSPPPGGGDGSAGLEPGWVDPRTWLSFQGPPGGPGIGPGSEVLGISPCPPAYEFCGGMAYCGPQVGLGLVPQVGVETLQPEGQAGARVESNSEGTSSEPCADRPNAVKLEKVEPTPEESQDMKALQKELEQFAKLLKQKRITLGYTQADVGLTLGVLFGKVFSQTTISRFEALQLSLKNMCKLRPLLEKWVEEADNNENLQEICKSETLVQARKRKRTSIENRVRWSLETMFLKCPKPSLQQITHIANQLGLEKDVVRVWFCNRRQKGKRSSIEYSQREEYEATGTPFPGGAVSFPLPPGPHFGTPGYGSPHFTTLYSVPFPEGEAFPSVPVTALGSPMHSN

B1: wild-type octamer probe (dsDNA)
DNA 1: TGTCGAATGCAAATCACT
DNA 2: AGTGATTTGCATTCGACA
For B1, the binding result is listed as “binds”.

The record behind these values is PMC11146590.
